Measured values taken from US20240116985A1, “STAPLED PEPTIDES AND METHODS THEREOF” (priority 2020, published 2024).
Starred links: 1 amine or outer side, 2 acyl side, 3 side chain; linkers in the order of their positions; H or OH if unused. Positions of bridges follow the written chain, without caps; N, C: chain ends. Non-standard residues stand in square brackets, D forms with d. Primed or numbered codes have the meaning given here. PyrS2″ = (S)-3-amino-1-((pent-4-en-1-yloxy)carbonyl)pyrrolidine-3-carboxylic acid (stapling residue), C=CCCCOC(=O)N1CC[C@@](N[*:1])(C(=O)[*:2])C1; B5(4) = 2,2-bis(4-pentenyl)glycine = 2-amino-2-(pent-4-en-1-yl)hept-6-enoic acid (stitching residue), C=CCCCC(CCCC=C)(N[*:1])C(=O)[*:2]; B5(5) = 2,2-bis(4-pentenyl)glycine, 2-amino-2-(pent-4-en-1-yl)hept-6-enoic acid (stitching residue), C=CCCCC(CCCC=C)(N[*:1])C(=O)[*:2]; TfeGA = (S)-2-amino-3-((carboxymethyl)(2,2,2-trifluoroethyl)amino)propanoic acid, O=C([C@H](CN(CC(=O)[*:3])CC(F)(F)F)N[*:1])[*:2]; B5(31) = 2-amino-2-(pent-4-en-1-yl)hept-6-enoic acid (bis-pentenylglycine, stitching residue), C=CCCCC(CCCC=C)(N[*:1])C(=O)[*:2]; B5(3) = 2,2-bis(4-pentenyl)glycine (stitching residue), C=CCCCC(CCCC=C)(N[*:1])C(=O)[*:2]; B5 = 2-amino-2-(pent-4-en-1-yl)hept-6-enoic acid, C=CCCCC(CCCC=C)(N[*:1])C(=O)[*:2]; Phe(3-COOH) = N[C@@H](Cc1cccc(C(=O)O)c1)C(=O)O; 2F3MeF = Cc1cccc(C[C@H](N[*:1])C(=O)[*:2])c1F; Phe(2-CF3) = N[C@@H](Cc1ccccc1C(F)(F)F)C(=O)O; Bip = N[C@@H](Cc1ccc(-c2ccccc2)cc1)C(=O)O; Dip = N[C@H](C(=O)O)C(c1ccccc1)c1ccccc1; Phe(2-Cl) = N[C@@H](Cc1ccccc1Cl)C(=O)O; Met(O2) = CS(=O)(=O)CC[C@H](N)C(=O)O; Bta = N[C@@H](Cc1csc2ccccc12)C(=O)O; Lys(iPr) = CC(C)NCCCC[C@H](N)C(=O)O; αAllylPro = C=CC[C@@]1(C(=O)O)CCCN1; tBuAla = CC(C)(C)C[C@H](N)C(=O)O; 3Thi = N[C@@H](Cc1ccsc1)C(=O)O; Cha = N[C@@H](CC1CCCCC1)C(=O)O; S8 = C=CCCCCCC[C@](C)(N)C(=O)O; Phg = N[C@H](C(=O)O)c1ccccc1; hSer = N[C@@H](CCO)C(=O)O; Aib = CC(C)(N)C(=O)O

These binders were tested against full-length beta-Catenin (Uniprot ID P35222) (Homo sapiens (Human)) (UniProt P35222) (assay: fluorescence polarization competition; 10 nM full-length beta-catenin + 10 nM 5FAM-TCF4(10-53) probe; peptide titrated 10 uM to 5 nM).
Target sequence in this assay (P35222 2-781 limits assumed): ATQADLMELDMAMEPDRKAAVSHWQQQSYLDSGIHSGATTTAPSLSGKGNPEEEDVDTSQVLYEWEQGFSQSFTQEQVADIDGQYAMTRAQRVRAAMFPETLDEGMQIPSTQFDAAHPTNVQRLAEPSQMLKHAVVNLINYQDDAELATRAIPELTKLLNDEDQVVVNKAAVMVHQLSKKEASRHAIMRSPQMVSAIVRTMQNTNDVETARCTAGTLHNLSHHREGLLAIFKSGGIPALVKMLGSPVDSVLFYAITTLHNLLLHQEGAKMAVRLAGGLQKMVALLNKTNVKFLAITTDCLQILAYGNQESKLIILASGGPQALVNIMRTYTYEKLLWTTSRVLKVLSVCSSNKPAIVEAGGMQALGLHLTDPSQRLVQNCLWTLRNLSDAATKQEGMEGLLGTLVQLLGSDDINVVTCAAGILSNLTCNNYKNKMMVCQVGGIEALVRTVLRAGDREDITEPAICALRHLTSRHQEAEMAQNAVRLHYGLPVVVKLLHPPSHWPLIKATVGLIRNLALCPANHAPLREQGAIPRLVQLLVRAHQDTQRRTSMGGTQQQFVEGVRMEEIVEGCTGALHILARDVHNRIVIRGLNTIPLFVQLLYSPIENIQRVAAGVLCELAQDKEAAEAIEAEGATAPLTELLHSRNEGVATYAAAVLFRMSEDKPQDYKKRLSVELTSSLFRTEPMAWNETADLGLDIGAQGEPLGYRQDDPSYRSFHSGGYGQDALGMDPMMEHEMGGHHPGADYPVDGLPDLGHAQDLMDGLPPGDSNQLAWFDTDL

Binder	IC50
Ac-[αAllylPro]D[tBuAla][B5(3)]N[Phe(3-COOH)]AAFT[PyrS2″][3Thi][Bta]Q-NH2 (staple 1-4, 4-11) [I-2336]	19 nM
Ac-[αAllylPro]N[Cha][B5(31)]D[hSer][Lys(iPr)]AFL[PyrS2″]F[Bta]Q-NH2 (staple 1-4, 4-11) [I-2345]	1270 nM
Ac-[αAllylPro]N[Cha][B5(31)]D[hSer][Lys(iPr)]AFL[PyrS2″]F[Bta]Q-NH2 (staple 1-4, 4-11; also: staple isomer, earlier eluting HPLC peak) [I-2344]	586 nM
Ac-[αAllylPro]D[tBuAla][B5(31)]NTAAFT[PyrS2″][3Thi][Bta]H-NH2 (staple 1-4, 4-11) [I-2337]	311 nM
Ac-[αAllylPro]N[Cha][B5(4)]DQ[Lys(iPr)]AFL[PyrS2″]F[Bta]H-NH2 (staple 1-4, 4-11) [I-2351]	187 nM
Ac-[αAllylPro]D[tBuAla][B5(31)]NTA[Aib]FN[PyrS2″][3Thi][Bta]Q-NH2 (staple 1-4, 4-11) [I-2339]	2820 nM
Ac-[αAllylPro]N[Cha][B5(3)]DQ[hSer]AFL[PyrS2″]F[Bta]Q-NH2 (staple 1-4, 4-11; also: earlier eluting isomer, configuration not given here) [I-2354]	100 nM
Ac-[αAllylPro]N[Cha][B5(31)]DH[Lys(iPr)]AFL[PyrS2″]F[Bta]Q-NH2 (staple 1-4, 4-11) [I-2349]	1160 nM
Ac-[αAllylPro]N[Cha][B5(31)]DH[Lys(iPr)]AFL[PyrS2″]F[Bta]Q-NH2 (staple 1-4, 4-11; also: staple isomer, earlier eluting HPLC peak) [I-2348]	179 nM
Ac-[αAllylPro]D[tBuAla][B5(3)]NT[Aib]AFN[PyrS2″][3Thi][Bta]Q-NH2 (staple 1-4, 4-11) [I-2338]	63 nM
Ac-[αAllylPro]N[Cha][B5(31)]DK[Lys(iPr)]AFL[PyrS2″]F[Bta]Q-NH2 (staple 1-4, 4-11; also: staple isomer, earlier eluting HPLC peak) [I-2346]	422 nM
Ac-[αAllylPro]N[Cha][B5(31)]DK[Lys(iPr)]AFL[PyrS2″]F[Bta]Q-NH2 (staple 1-4, 4-11) [I-2347]	5630 nM
Ac-[αAllylPro]N[Cha][B5(3)]DQ[Lys(iPr)]AFL[PyrS2″]F[Bta]K-NH2 (staple 1-4, 4-11) [I-2350]	63 nM
Ac-[αAllylPro][hSer][Cha][B5(4)]DQ[Lys(iPr)]AFL[PyrS2″]F[Bta]Q-NH2 (staple 1-4, 4-11) [I-2353]	2760 nM
Ac-[αAllylPro]N[Cha][B5(4)]DQ[Lys(iPr)]AFL[PyrS2″]F[Bta]A-NH2 (staple 1-4, 4-11) [I-2352]	211 nM

These binders were tested against full-length beta-Catenin (Uniprot ID P35222) (Homo sapiens (Human)) (UniProt P35222) (assay: fluorescence polarization competition; full-length beta-catenin + 5FAM-TCF4(10-53) probe; peptide titrated).
Target sequence in this assay (P35222 2-781 limits assumed): as above

Binder	EC50
Ac-[αAllylPro]D[Cha][B5(3)]D[TfeGA]AAFN[S8][3Thi][Bta]H-NH2 (staple 1-4, 4-11) [I-709]	54 nM
Ac-[αAllylPro]D[tBuAla][B5(3)]D[TfeGA]AAFN[S8][3Thi][Bta]H-NH2 (staple 1-4, 4-11) [I-705]	58 nM

Each binder was assayed against full-length beta-Catenin (Uniprot ID P35222) (Homo sapiens (Human)) (UniProt P35222) (assay: fluorescence polarization competition; full-length beta-catenin with 5FAM-labeled TCF4 residues 10-53 probe as competitor).
Target sequence in this assay (P35222 whole entry, the tested form may be a part): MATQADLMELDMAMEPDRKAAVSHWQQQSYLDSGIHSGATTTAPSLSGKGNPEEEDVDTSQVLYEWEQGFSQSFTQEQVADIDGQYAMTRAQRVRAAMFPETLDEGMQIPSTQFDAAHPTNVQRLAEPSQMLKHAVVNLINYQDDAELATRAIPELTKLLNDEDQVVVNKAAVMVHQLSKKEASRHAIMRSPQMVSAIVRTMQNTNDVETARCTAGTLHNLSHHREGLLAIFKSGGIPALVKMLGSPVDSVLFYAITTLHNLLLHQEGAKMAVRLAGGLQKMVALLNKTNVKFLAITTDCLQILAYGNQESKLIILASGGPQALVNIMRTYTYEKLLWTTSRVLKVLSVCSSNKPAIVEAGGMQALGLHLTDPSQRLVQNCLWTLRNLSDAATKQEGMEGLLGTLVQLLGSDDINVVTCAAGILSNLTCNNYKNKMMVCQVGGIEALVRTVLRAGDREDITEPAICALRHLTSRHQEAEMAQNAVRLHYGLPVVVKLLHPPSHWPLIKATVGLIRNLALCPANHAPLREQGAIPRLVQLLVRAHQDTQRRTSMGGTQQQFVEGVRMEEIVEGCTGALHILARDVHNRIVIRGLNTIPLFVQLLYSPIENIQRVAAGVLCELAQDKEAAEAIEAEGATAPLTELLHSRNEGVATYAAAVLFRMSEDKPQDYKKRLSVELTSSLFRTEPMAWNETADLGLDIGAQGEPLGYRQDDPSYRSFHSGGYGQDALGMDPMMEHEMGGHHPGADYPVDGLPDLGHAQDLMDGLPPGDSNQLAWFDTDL

Binder	EC50
Ac-[αAllylPro]DI[B5]DEAAFN[S8][3Thi][Bta]-NH2 (staple 1-4, 4-11) [I-721]	46 nM
Ac-[αAllylPro]DI[B5]DEAA[Cha]Q[S8]F[Bta]Q-NH2 (staple 1-4, 4-11) [I-722]	1130 nM
Ac-[αAllylPro]DI[B5]DEAA[Phg]Q[S8]F[Bta]Q-NH2 (staple 1-4, 4-11) [I-726]	5000 nM
Ac-[αAllylPro]DI[B5]DEAA[Dip]Q[S8]F[Bta]Q-NH2 (staple 1-4, 4-11) [I-725]	5000 nM
Ac-[αAllylPro]DI[B5]DEAA[Bip]Q[S8]F[Bta]Q-NH2 (staple 1-4, 4-11) [I-723]	3830 nM

What follows are binders tested against full-length beta-Catenin (Uniprot ID P35222) (Homo sapiens (Human)) (UniProt P35222) (assay: fluorescence polarization competition; peptide titrated against full-length beta-catenin + 5FAM-TCF4(10-53)).
Target sequence in this assay (P35222 whole entry, the tested form may be a part): as above

Binder	IC50
Ac-[αAllylPro]DI[B5]DEAAFN[S8][3Thi][Bta]-NH2 (staple 1-4, 4-11) [I-721]	46 nM
Ac-[αAllylPro]DI[B5]DEAA[Cha]Q[S8]F[Bta]Q-NH2 (staple 1-4, 4-11) [I-722]	1130 nM
Ac-[αAllylPro]D[Cha][B5(3)]D[TfeGA]AAFN[S8][3Thi][Bta]H-NH2 (staple 1-4, 4-11) [I-709]	54 nM
Ac-[αAllylPro]DI[B5]DEAA[Phg]Q[S8]F[Bta]Q-NH2 (staple 1-4, 4-11) [I-726]	5000 nM
Ac-[αAllylPro]DI[B5]DEAA[Dip]Q[S8]F[Bta]Q-NH2 (staple 1-4, 4-11) [I-725]	5000 nM
Ac-[αAllylPro]DI[B5]DEAA[Bip]Q[S8]F[Bta]Q-NH2 (staple 1-4, 4-11) [I-723]	3830 nM
Ac-[αAllylPro]D[tBuAla][B5(3)]D[TfeGA]AAFN[S8][3Thi][Bta]H-NH2 (staple 1-4, 4-11) [I-705]	58 nM

The binders below were run against full-length beta-Catenin (Uniprot ID P35222) (Homo sapiens (Human)) (UniProt P35222) (assay: fluorescence polarization competition; 10 nM full-length beta-catenin, 10 nM 5FAM-TCF4(10-53) as competitor probe).
Target sequence in this assay (P35222 2-781 limits assumed): as the sequence (P35222 2-781 limits assumed) above

Binder	IC50
Ac-[αAllylPro]N[Cha][B5(4)]DQ[Lys(iPr)]AFN[PyrS2″]F[Bta]A-NH2 (staple 1-4, 4-11) [I-2065]	144 nM
Ac-[αAllylPro]N[Cha][B5(4)]DQ[Lys(iPr)]AFN[PyrS2″]F[Bta]F-NH2 (staple 1-4, 4-11) [I-2068]	338 nM
Ac-[αAllylPro]D[tBuAla][B5(3)]D[Phe(3-COOH)]TAFL[PyrS2″][3Thi][Bta]A-NH2 (staple 1-4, 4-11) [I-2051]	16 nM
Ac-[αAllylPro]D[tBuAla][B5(4)]D[Phe(3-COOH)]TAFL[PyrS2″][Phe(2-CF3)][Bta]A-NH2 (staple 1-4, 4-11) [I-2060]	56 nM
Ac-[αAllylPro]D[tBuAla][B5(4)]D[Phe(3-COOH)]AAFL[PyrS2″][Phe(2-CF3)][Bta][Met(O2)]-NH2 (staple 1-4, 4-11) [I-2063]	56 nM
Ac-[αAllylPro]D[tBuAla][B5(4)]D[Phe(3-COOH)]NAFL[PyrS2″][Phe(2-CF3)][Bta]A-NH2 (staple 1-4, 4-11) [I-2058]	10 nM
Ac-[αAllylPro]N[Cha][B5(4)]DQHAFN[PyrS2″]F[Bta]A-NH2 (staple 1-4, 4-11) [I-2069]	256 nM
Ac-[αAllylPro]D[tBuAla][B5(4)]D[Phe(3-COOH)]QAFV[PyrS2″][3Thi][Bta]A-NH2 (staple 1-4, 4-11) [I-2054]	5 nM
Ac-[αAllylPro]N[Cha][B5(5)]DQHAFN[PyrS2″]F[Bta][hSer]-NH2 (staple 1-4, 4-11) [I-2066]	357 nM
Ac-[αAllylPro]D[tBuAla][B5(4)]D[Phe(3-COOH)]QAFL[PyrS2″][3Thi][Bta]L-NH2 (staple 1-4, 4-11) [I-2056]	16 nM
Ac-[αAllylPro]N[Cha][B5(4)]DQQAFN[PyrS2″]F[Bta][hSer]-NH2 (staple 1-4, 4-11) [I-2067]	180 nM
Ac-[αAllylPro]D[tBuAla][B5(4)]D[Phe(3-COOH)]QAFL[PyrS2″][2F3MeF][Bta]A-NH2 (staple 1-4, 4-11) [I-2057]	17 nM
Ac-[αAllylPro]D[tBuAla][B5(4)]D[Phe(3-COOH)]AAFL[PyrS2″][Phe(2-Cl)][Bta][Met(O2)]-NH2 (staple 1-4, 4-11) [I-2062]	41 nM
Ac-[αAllylPro]N[Cha][B5(4)]DQQAFN[PyrS2″]F[Bta]A-NH2 (staple 1-4, 4-11) [I-2070]	190 nM
Ac-[αAllylPro]D[tBuAla][B5(3)]D[Phe(3-COOH)]QAFF[PyrS2″][3Thi][Bta]A-NH2 (staple 1-4, 4-11) [I-2052]	12 nM
Ac-[αAllylPro]D[tBuAla][B5(4)]D[Phe(3-COOH)]SAFL[PyrS2″][Phe(2-CF3)][Bta]A-NH2 (staple 1-4, 4-11) [I-2059]	38 nM
